# Reference: patent US20260217833A1 (APTEVO RESEARCH AND DEVELOPMENT, published 2026)
# Residue numbers refer to the chain shown, from its start. Like-named read-outs stand apart in the source and are kept apart here.
# T1: Cynomolgus CHOK1SV/CD40
# T1 construct: also called Cyno CD40 full-length; CD4001013
# T1 receptor chain: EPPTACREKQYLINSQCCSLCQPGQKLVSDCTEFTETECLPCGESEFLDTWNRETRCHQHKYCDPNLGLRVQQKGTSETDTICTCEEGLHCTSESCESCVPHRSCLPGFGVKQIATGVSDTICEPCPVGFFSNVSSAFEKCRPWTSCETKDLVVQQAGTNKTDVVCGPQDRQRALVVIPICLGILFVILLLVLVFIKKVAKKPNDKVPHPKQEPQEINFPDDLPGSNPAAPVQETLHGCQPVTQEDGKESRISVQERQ
# B1: PC401129 (bispecific antibody)
# scFv-Fc-scFv chain: DIQMTQSPSSLSASVGDRVTITCRASQDINKFLSWYQQKPGKAPKLLIHYTSSLQSGVPSRFSGSGSGTDFTLTISSLQPEDFATYYCLQYDNLYTFGQGTKLEIKGGGGSGGGGSGGGGSGGGGSEVQLVESGGGLVQPGGSLRLSCAASGFTFSDYGMAWVRQAPGKGLEWVSFITSLAYIIYYADSVKGRFTISRDNAKNSLYLQMNSLRAEDTAVYYCARNYGSSPYYFDYWGQGTLVTVSSEPKSSDKTHTCPPCPAPPAAAPSVFLFPPKPKDTLMISRTPEVTCVVVDVSHEDPEVKFNWYVDGVEVHNAKTKPREEQYNSTYRVVSVLTVLHQDWLNGKEYKCAVSNKALPAPIEKTISKAKGQPREPQVYTLPPSRDELTKNQVSLTCLVKGFYPSDIAVEWESNGQPENNYKTTPPVLDSDGSFFLYSKLTVDKSRWQQGNVFSCSVMHEALHNHYTQKSLSLSPGGGGSPSDIQMTQSPSSVSASVGDRVTITCRASQSLNFSVNQKNYLAWYQQKPGKAPKLLIYWASSLQSGVPSRFSGSGSGTDFTLTISSLQPEDFATYYCQHYYSYPWTFGQGTKVEIKGGGGSGGGGSGGGGSGGGGSQVQLVQSGAEVKKPGSSVKVSCKASGYTFSTSWIEWIRQAPGQGLEWMGSILPGSGSTNYAQKFQGRVTITADTSTSTAYMELSSLRSEDTAVYYCARGDDGSYVRWYFDHWGQGTLVTVSS
# notes: also called L-Leu30Asn
# B2: PC401133 (bispecific antibody)
# scFv-Fc-scFv chain: B1 scFv-Fc-scFv chain with N512L, L667Q
# notes: also called H-Leu52Gln
# B3: PC401132 (bispecific antibody)
# scFv-Fc-scFv chain: B1 scFv-Fc-scFv chain with N512L, L667N
# notes: also called H-Leu52Asn
# B4: CD4001100 (Fc fusion)
# chain: DVQMTQSPILLSASVGDRVTITCRSSQSLVHYNGYTYVHWYQQRTNGSPRLLIYKVSNRFSGVPDRFSGSGSGTDFTLTISSLQPEDIADYFCQQTTHVPLTFGAGTKVEIKGGGGSGGGGSGGGGSGGGGSEVQLVESGGGLEQPGGSLRLSCAASGFTFSSYAMSWVRQAPGKGLEWVASISSAGTYIYYADSVKGRFTISRDNSKNTLYLQMNSLRAEDTAVYYCARHGNGYDPLWYFDVWGQGTTVTVSS
# notes: As m65; not shown: wildtype IgG1 Fc region
# B5: CD4001132 (Fc fusion)
# chain: DVQMTQSPILLSASVGDRVTITCRSSQSLVHYNGYTYVHWYQQKPGKAPKLLIYKVSNLFSGVPSRFSGSGSGTDFTLTISSLQPEDIADYFCQQTTHVPLTFGAGTKVEIKGGGGSGGGGSGGGGSGGGGSEVQLVESGGGLVQPGGSLRLSCAASGFTFSSYAMSWVRQAPGKGLEWVSAISSAGTYIYYADSVKGRFTISRDNSKNTLYLQMNSLRAEDTAVYYCARHGNGYDPLWYFDVWGQGTTVTVSS
# notes: as for B4
# B6: CD4001242 (Fc fusion)
# chain: EPKSSDKTHTCPPCPAPPAAAPSVFLFPPKPKDTLMISRTPEVTCVVVDVSHEDPEVKFNWYVDGVEVHNAKTKPREEQYNSTYRVVSVLTVLHQDWLNGKEYKCAVSNKALPAPIEKTISKAKGQPREPQVYTLPPSRDELTKNQVSLTCLVKGFYPSDIAVEWESNGQPENNYKTTPPVLDSDGSFFLYSKLTVDKSRWQQGNVFSCSVMHEALHNHYTQKSLSLSPGGGGSPSDIQMTQSPSSVSASVGDRVTITCRASQSLLFSVNQKNYLAWYQQKPGKAPKLLIYWASSLQSGVPSRFSGSGSGTDFTLTISSLQPEDFATYYCQHYYSYPWTFGQGTKVEIKGGGGSGGGGSGGGGSGGGGSQVQLVQSGAEVKKPGSSVKVSCKASGYTFSTSWIEWIRQAPGQGLEWMGSILPGSGSTNYAQKFQGRVTITADTSTSTAYMELSSLRSEDTAVYYCARGDDGSYVRWYFDHWGQGTLVTVSS
# notes: also called final humanized version of 1D5
# B7: CD4001133 (Fc fusion)
# VH: EVQLVESGGGLVQPGGSLRLSCAASGFTFSSYAMSWVRQAPGKGLEWVSAISSAGTYIYYADSVKGRFTISRDNSKNTLYLQMNSLRAEDTAVYYCARHGNGYDPLWYFDVWGQGTTVTVSS
# VL: DIQMTQSPSSLSASVGDRVTITCRASQSLVHYNGYTYLNWYQQKPGKAPKLLIYKVSNRFSGVPDRFSGSGSGTDFTLTISSLQPEDFATYYCQQTTHVPLTFGQGTKVEIK
# notes: Tested as scFv on the N-terminus of a wildtype IgG1 Fc region; also called Humanized 5B9
# B8: CD4001048 (bispecific antibody)
# scFv-Fc-scFv chain: DVVMTQTPLSLPVSLGDQASISCRSSQSLVHYNGYTYLHWYLQKPGQSPKLLIYKVSNRFSGVPDRFSGSGSGTDFTLKISRVEAEDLGVYFCSQTTHVPLTFGAGTKLELRGGGGSGGGGSGGGGSGGGGSEVMLVESGGGLVKPGGSLKLSCAASGFTFSSYAMSWVRQTPERRLEWVASISSAGTYIYYPDSVKGRFTISRDNAKNILYLQMNSLRSEDTAMYYCARHGNGYDPLWYFDVWGAGTTVTVSSEPKSSDKTHTCPPCPAPPAAAPSVFLFPPKPKDTLMISRTPEVTCVVVDVSHEDPEVKFNWYVDGVEVHNAKTKPREEQYNSTYRVVSVLTVLHQDWLNGKEYKCAVSNKALPAPIEKTISKAKGQPREPQVYTLPPSRDELTKNQVSLTCLVKGFYPSDIAVEWESNGQPENNYKTTPPVLDSDGSFFLYSKLTVDKSRWQQGNVFSCSVMHEALHNHYTQKSLSLSPGGGGSPSEVQLVESGGGLVKPGGSLRLSCAASGFTFSDYGMAWVRQAPGKGLEWVAFITSLAYIIYYADSVKGRFTISRDNAKNSLYLQMNSLRAEDTAVYYCARNYGSSPYYFDYWGQGTLVTVSSGGGGSGGGGSGGGGSGGGGSDIQMTQSPSSLSASVGDRVTITCRASQDINKFLSWYQQKPGKAPKLLIHYTSSLQPGVPSRFSGSGSGTDFTLTISSLQPEDFATYYCLQYDNLYTFGQGTKLEIK
# notes: also called CD40_5B9 x hFc x PDL_5F9
# B9: CD4001065 (PDL_5F9 x hFc x CD40_5B9) (bispecific antibody)
# chain: EVQLVESGGGLVKPGGSLRLSCAASGFTFSDYGMAWVRQAPGKGLEWVAFITSLAYIIYYADSVKGRFTISRDNAKNSLYLQMNSLRAEDTAVYYCARNYGSSPYYFDYWGQGTLVTVSSGGGGSGGGGSGGGGSGGGGSDIQMTQSPSSLSASVGDRVTITCRASQDINKFLSWYQQKPGKAPKLLIHYTSSLQPGVPSRFSGSGSGTDFTLTISSLQPEDFATYYCLQYDNLYTFGQGTKLEIKEPKSSDKTHTCPPCPAPPAAAPSVFLFPPKPKDTLMISRTPEVTCVVVDVSHEDPEVKFNWYVDGVEVHNAKTKPREEQYNSTYRVVSVLTVLHQDWLNGKEYKCAVSNKALPAPIEKTISKAKGQPREPQVYTLPPSRDELTKNQVSLTCLVKGFYPSDIAVEWESNGQPENNYKTTPPVLDSDGSFFLYSKLTVDKSRWQQGNVFSCSVMHEALHNHYTQKSLSLSPGGGGSPSDVVMTQTPLSLPVSLGDQASISCRSSQSLVHYNGYTYLHWYLQKPGQSPKLLIYKVSNRFSGVPDRFSGSGSGTDFTLKISRVEAEDLGVYFCSQTTHVPLTFGAGTKLELRGGGGSGGGGSGGGGSGGGGSEVMLVESGGGLVKPGGSLKLSCAASGFTFSSYAMSWVRQTPERRLEWVASISSAGTYIYYPDSVKGRFTISRDNAKNILYLQMNSLRSEDTAMYYCARHGNGYDPLWYFDVWGAGTTVTVSS
# notes: ADAPTIR format, anti-PD-L1 scFv on N-terminus, anti-CD40 scFv on C-terminus; also called CD4001065 (5B9)
# B10: CD401136 (Fc fusion)
# scFv: DIVMTQSPDSLALSLGERATMNCKSSQSLLFSVNQKNYLAWYQQKPGQPPKLLIYWASTRESGVPDRFSGSGSGTDFTLTISSLQAEDVAVYYCQHYYSYPWTFGQGTKLEIKGGGGSGGGGSGGGGSGGGGSQVQLVQSGAEVKKPGASVKVSCKASGYTFSTSWMEWVRQAPGQGLEWMGEILPGSGSTNYAQKFQGRVTMTRDTSTSTVYMELSSLRSEDTAVYYCARGDDGSYVRWYFDVWGQGTTVTVSS
# notes: humanized 1D5 variant; also called CD4001136; not shown: human Fc (scFv-hFc format, scFv at the N-terminus) and its junction
# B11: CD401135 (Fc fusion)
# scFv: B10 scFv with M167I, M181I, V201A, M203F, R205A, V212A
# notes: humanized 1D5 variant; also called CD4001135; not shown: human Fc (scFv-hFc format, scFv at the N-terminus) and its junction
# B12: CD401137 (Fc fusion)
# scFv: QIVMTQSPGTLSLSPGERATMTCKSSQSLLFSVNQKNYLAWYQQKPGQAPRLLIYWASTRESGVPDRFSGSGSGTDFTLTISRLEPEDAATYYCQHYYSYPWTFGAGTKLEIKGGGGSGGGGSGGGGSGGGGSQVQLVQSGAEVKKPGASVKVSCKASGYTFSTSWMEWVRQAPGQGLEWMGEILPGSGSTNYAQKFQGRVTMTRDTSTSTVYMELSSLRSEDTAVYYCARGDDGSYVRWYFDVWGQGTTVTVSS
# notes: humanized 1D5 variant; also called CD4001137; not shown: human Fc (scFv-hFc format, scFv at the N-terminus) and its junction
# B13: CD401134 (Fc fusion)
# scFv: B10 scFv with Q136K, M167I, V170I, M181I, V201A, M203F, R205A, V212A
# notes: humanized 1D5 variant; also called CD4001134; not shown: human Fc (scFv-hFc format, scFv at the N-terminus) and its junction
# What was measured:
# [1] = target: T2, human CD40 full-length (human, UniProt P25942 21-277); test: flow cytometry, CHOK1SV/human CD40 cells
# T2 construct: Also used for CD40 of Daudi cells, of CD40-expressing HEK293 cells and of the BPS CD40/NFkB HEK293 reporter cells where the row says so; also called CD4001012; CHOK1SV/CD40
# [2] = target: T1, Cynomolgus CHOK1SV/CD40; test: flow cytometry, CHOK1SV/cynomolgus CD40 cells
# [3] = target: T3, human CD40 ECD- HAC tag (human); test: SPR, binder captured on anti-human IgG, monomeric CD40 ECD injected, 1:1 fit
# T3 construct: also called CD4001006; recombinant monomeric human CD40 ectodomain (ECD)
# [4] = target: T2, human CD40 full-length; test: flow cytometry, CHOK1SV/human CD40 cells; remark: listed apart in the source
# Target sequence in this assay (P25942 21-277): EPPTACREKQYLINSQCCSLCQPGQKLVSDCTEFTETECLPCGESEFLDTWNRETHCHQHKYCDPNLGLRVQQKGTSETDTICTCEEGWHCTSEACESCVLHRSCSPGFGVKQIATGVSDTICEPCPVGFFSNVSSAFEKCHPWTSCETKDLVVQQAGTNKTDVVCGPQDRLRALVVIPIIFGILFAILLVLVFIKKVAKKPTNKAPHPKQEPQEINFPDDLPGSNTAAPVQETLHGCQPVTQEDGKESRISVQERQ
# [5] = target: T2, human CD40 full-length; test: flow cytometry, CHOK1SV/human CD40 cells; remark: listed apart in the source
# [6] = target: T4, Human PD-L1 full-length (human, UniProt Q9NZQ7 19-290); test: flow cytometry, CHOK1SV/human PD-L1 cells
# T4 construct: also called PDL01021; CHOK1SV/huPDL1
# [7] = target: T2, human CD40 full-length; test: flow cytometry, CHOK1SV/human CD40 cells; remark: listed apart in the source
# T4 sequence (Q9NZQ7 19-290): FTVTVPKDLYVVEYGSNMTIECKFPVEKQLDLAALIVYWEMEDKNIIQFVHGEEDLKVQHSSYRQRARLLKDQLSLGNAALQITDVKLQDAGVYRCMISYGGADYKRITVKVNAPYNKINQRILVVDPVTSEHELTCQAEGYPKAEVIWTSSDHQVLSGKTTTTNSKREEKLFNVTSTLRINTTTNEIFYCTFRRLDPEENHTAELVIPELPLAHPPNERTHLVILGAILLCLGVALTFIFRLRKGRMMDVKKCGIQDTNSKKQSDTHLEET
binder,measurement,setting,value
B1,binding result,[1],binds
same,binding result,[2],binds
B2,binding result,[1],binds
same,binding result,[2],binds
B3,binding result,[1],binds
same,binding result,[2],binds
B4,Kd,[3],21 nM
same,koff,[3],0.006 s⁻¹
same,kon,[3],290000 M⁻¹ s⁻¹
same,binding result,[4],binds
B5,kon,[3],240000 M⁻¹ s⁻¹
same,EC50 (read off the curve),[5],~5 nM
B6,binding result,[2],binds
B7,Kd,[3],85 nM
same,koff,[3],0.019 s⁻¹
same,kon,[3],230000 M⁻¹ s⁻¹
same,EC50 (read off the curve),[5],~7 nM
B8,binding result,[6],binds
same,binding result,[7],binds
B9,binding result,[6],binds
same,binding result,[7],binds
B10,binding result,[5],binds
B11,binding result,[5],binds
B12,binding result,[5],binds
B13,binding result,[5],binds
